We go through two molecules from publication PMC3677566 (Biochemistry, 2011).

The experiment deals with Ubc9 (human, UniProt P63279 1-158). The experiment is described as follows: pull-down.
Chain of Ubc9 (P63279 whole entry): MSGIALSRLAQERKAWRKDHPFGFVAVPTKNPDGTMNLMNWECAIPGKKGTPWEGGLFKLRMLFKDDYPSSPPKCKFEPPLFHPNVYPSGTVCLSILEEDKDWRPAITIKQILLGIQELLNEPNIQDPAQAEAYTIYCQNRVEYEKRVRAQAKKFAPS

B1: IR1-M_ΔSIM domain of RanBP2 (domain or fragment, UniProt P49792 2637-2710, looked up)
chain: ELTPTAEQKALATKLKLPPTFFCYKNRPDYVSEEEEDDEDFETAVKKLNGKLYLDGSEKCRPLEENTADNEKEC
On to B1, for which the binding result was “binds”.

B2: IR1-M domain (internal repeat 1 and M) of RanBP2 (domain or fragment, UniProt P49792 2629-2710, looked up)
chain: DDDVLIVYELTPTAEQKALATKLKLPPTFFCYKNRPDYVSEEEEDDEDFETAVKKLNGKLYLDGSEKCRPLEENTADNEKEC
In the case of B2, the binding result is “binds”.
